Data as given in US20100278832A1 (Chugai, published 2010).

Tests used:
human BST2D = target: T1, human BST2D (human, UniProt Q10589 1-161); assay: flow cytometry of hybridoma supernatant on 293T cells expressing human BST2D
T1 construct: Transmembrane glycoprotein, splicing variant D, 180 residues; also called type D BST2; BST2D-CHO cells
Method: The hybridoma culture supernatants were analyzed by flow cytometry (FCM). The cells prepared as described in A of Example 1 were suspended in 0.5% BSA/2 mM EDTA/PBS, and collected into centrifuge tubes at 1×10⁵ cells/sample. 40 μl of each hybridoma culture supernatant was added, and the tubes were incubated at room temperature for 30 minutes. Then, a 1-ml aliquot of 0.5% BSA/2 mM EDTA/PBS was added to each tube, the tubes were centrifuged for three minutes at 1200 rpm and 4° C., and the supernatants were discarded; this washing process was repeated twice. A 40-μl aliquot of 100× diluted FITC-labeled goat anti-mouse IgG antibody (Beckman coulter; IM0819) was added to each tube after washing. The tubes were incubated at room temperature for 30 minutes. Following two rounds of washing, the hybridoma culture supernatants were analyzed with flow cytometer FC500 (Beckman coulter) to assess whether the antibody in the supernatants could specifically recognize human BST2D. […] The selected hybridomas were cloned by the limiting dilution method. The resulting hybridomas producing mouse anti-human BST2 antibody were named #3LD, #4LD, #7LD, #9LD, and #19LD.

[1] = target: T2, His-tagged recombinant human BST2 protein S(131)-Q(180) (human, UniProt Q10589 131-180, not fully specified); assay: Western blot of His-tagged BST2 fragment, 1 µg/ml antibody
T2 construct: Expressed in E. coli BL21(DE3); denatured and reduced for Western blotting; also called lane 4: S(131)-Q(180); not shown: N-terminal His tag supplied by vector pET32
T2 chain: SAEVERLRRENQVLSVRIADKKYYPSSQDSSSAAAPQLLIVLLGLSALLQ
Method: (§1) The His-tagged human BST2 proteins (synthesized as described in A) were each dissolved in sample buffer, and heated at 70° C. for ten minutes. The dissolved proteins were fractionated on a 4-20% SDS-PAGE gradient gel (Invitrogen) and transferred onto PVDF membrane (Millipore). The membrane was blocked with BSA and incubated with 1 μg/ml antibody 4LD or 2000× diluted anti-His tag antibody (Novagen). After reaction with an HRP-labeled anti-mouse IgG antibody (Jackson), ECL Detection Reagent (GE Healthcare) was reacted for chemical luminescence, and the His-tagged human BST2 proteins were detected using LAS-1000 from Fuji Film.

[2] = target: T3, His-tagged recombinant human BST2 protein K(47)-A(149) (human, UniProt Q10589 47-149); assay: as above
T3 construct: Expressed in E. coli BL21(DE3); denatured and reduced for Western blotting; also called lane 5: K(47)-----A(149); not shown: N-terminal His tag supplied by vector pET32
T3 sequence: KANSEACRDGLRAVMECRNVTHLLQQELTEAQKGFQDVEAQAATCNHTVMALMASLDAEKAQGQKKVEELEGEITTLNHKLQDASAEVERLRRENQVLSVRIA
Method: as §1

[3] = target: T4, His-tagged recombinant human BST2 protein K(47)-P(155) (human, UniProt Q10589 47-155); assay: as above
T4 construct: Expressed in E. coli BL21(DE3); denatured and reduced for Western blotting; also called lane 3: K(47)----------P(155); not shown: N-terminal His tag supplied by vector pET32
T4 sequence: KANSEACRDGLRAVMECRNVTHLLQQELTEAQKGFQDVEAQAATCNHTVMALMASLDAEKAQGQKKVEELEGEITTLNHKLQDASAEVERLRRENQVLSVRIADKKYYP
Method: as §1

[4] = target: T5, His-tagged recombinant human BST2 protein K(47)-I(148) (human, UniProt Q10589 47-148); assay: as above
T5 construct: Expressed in E. coli BL21(DE3); denatured and reduced for Western blotting; also called lane 6: K(47)----I(148); not shown: N-terminal His tag supplied by vector pET32
T5 sequence: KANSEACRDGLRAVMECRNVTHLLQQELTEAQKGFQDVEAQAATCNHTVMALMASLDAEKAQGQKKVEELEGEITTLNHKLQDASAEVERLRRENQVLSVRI
Method: as §1

[5] = target: T6, His-tagged recombinant human BST2 protein E(133)-Q(180) (human, UniProt Q10589 133-180, not fully specified); assay: as above
T6 construct: Expressed in E. coli BL21(DE3); denatured and reduced for Western blotting; not shown: N-terminal His tag supplied by vector pET32
T6 chain: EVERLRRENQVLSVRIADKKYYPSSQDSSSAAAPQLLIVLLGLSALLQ
Method: as §1

[6] = target: T7, His-tagged recombinant human BST2 protein K(47)-D(150) (human, UniProt Q10589 47-150); assay: as above
T7 construct: Expressed in E. coli BL21(DE3); denatured and reduced for Western blotting; also called lane 4: K(47)------D(150); not shown: N-terminal His tag supplied by vector pET32
T7 sequence: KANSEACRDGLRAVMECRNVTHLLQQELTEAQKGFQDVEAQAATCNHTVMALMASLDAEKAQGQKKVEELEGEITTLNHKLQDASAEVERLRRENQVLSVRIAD
Method: as §1

[7] = target: T8, His-tagged recombinant human BST2 protein A(132)-Q(180) (human, UniProt Q10589 132-180, not fully specified); assay: as above
T8 construct: Expressed in E. coli BL21(DE3); denatured and reduced for Western blotting; also called lane 5: A(132)--Q(180); not shown: N-terminal His tag supplied by vector pET32
T8 chain: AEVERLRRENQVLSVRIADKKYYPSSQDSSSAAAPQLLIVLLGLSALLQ
Method: as §1

[8] = target: T9, His-tagged recombinant human BST2 protein K(47)-R(147) (human, UniProt Q10589 47-147); assay: as above
T9 construct: Expressed in E. coli BL21(DE3); denatured and reduced for Western blotting; not shown: N-terminal His tag supplied by vector pET32
T9 sequence: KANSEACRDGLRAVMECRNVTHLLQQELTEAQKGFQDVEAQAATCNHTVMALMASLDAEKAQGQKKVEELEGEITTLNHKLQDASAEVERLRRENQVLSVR
Method: as §1

human BST2H = target: T10, human BST2H (human); assay: flow cytometry on BST2H-CHO cells
T10 construct: Expressed from pcDNA3.1-hBST2H on CHO-K1 cells (BST2H-CHO line); Splicing variant H, 158 residues; also called type H BST2; BST2H-CHO cells
T10 chain: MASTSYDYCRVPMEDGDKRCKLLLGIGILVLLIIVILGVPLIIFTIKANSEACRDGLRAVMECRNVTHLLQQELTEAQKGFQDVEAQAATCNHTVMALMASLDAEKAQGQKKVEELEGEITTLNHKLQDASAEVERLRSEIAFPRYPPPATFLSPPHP

[9] = target: BST2 on human myeloma-derived RPMI8226 cells (human) (UniProt Q10589); assay: flow cytometry on RPMI8226 cells, Kd calculated with Prism 4 from percentage of staining at 0.01-10 µg/ml
[10] = target: T11, His-tagged recombinant human BST2 protein R(136)-Q(180) (human, UniProt Q10589 136-180, not fully specified); assay: Western blot of His-tagged BST2 fragment
T11 construct: Expressed in E. coli BL21(DE3); denatured and reduced for Western blotting; also called lane 9: R(136)------Q(180); not shown: N-terminal His tag supplied by vector pET32
T11 chain: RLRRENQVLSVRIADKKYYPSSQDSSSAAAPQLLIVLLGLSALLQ
Method: as §1

[11] = target: T12, His-tagged recombinant human BST2 protein L(137)-Q(180) (human, UniProt Q10589 137-180, not fully specified); assay: Western blot of His-tagged BST2 fragment
T12 construct: Expressed in E. coli BL21(DE3); denatured and reduced for Western blotting; also called lane 10: L(137)-------Q(180); not shown: N-terminal His tag supplied by vector pET32
T12 chain: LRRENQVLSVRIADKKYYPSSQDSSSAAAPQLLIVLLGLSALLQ
Method: as §1

[12] = target: T13, His-tagged recombinant human BST2 protein V(134)-Q(180) (human, UniProt Q10589 134-180, not fully specified); assay: Western blot of His-tagged BST2 fragment
T13 construct: Expressed in E. coli BL21(DE3); denatured and reduced for Western blotting; also called lane 7: V(134)----Q(180); not shown: N-terminal His tag supplied by vector pET32
T13 chain: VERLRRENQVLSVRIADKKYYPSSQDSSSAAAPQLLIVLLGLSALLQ
Method: as §1

[13] = target: T14, His-tagged recombinant human BST2 protein K(47)-V(146) (human, UniProt Q10589 47-146); assay: Western blot of His-tagged BST2 fragment
T14 construct: Expressed in E. coli BL21(DE3); denatured and reduced for Western blotting; also called lane 8: K(47)--V(146); not shown: N-terminal His tag supplied by vector pET32
T14 sequence: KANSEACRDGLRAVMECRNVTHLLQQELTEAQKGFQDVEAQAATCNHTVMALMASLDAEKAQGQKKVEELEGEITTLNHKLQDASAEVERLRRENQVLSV
Method: as §1

[14] = target: T15, His-tagged recombinant human BST2 protein K(47)-S(145) (human, UniProt Q10589 47-145); assay: Western blot of His-tagged BST2 fragment
T15 construct: Expressed in E. coli BL21(DE3); denatured and reduced for Western blotting; also called lane 9: K(47)-S(145); not shown: N-terminal His tag supplied by vector pET32
T15 sequence: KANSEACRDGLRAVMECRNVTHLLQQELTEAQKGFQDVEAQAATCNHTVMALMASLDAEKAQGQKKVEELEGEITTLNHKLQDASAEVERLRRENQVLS
Method: as §1

[15] = target: T16, His-tagged recombinant human BST2 protein E(135)-Q(180) (human, UniProt Q10589 135-180, not fully specified); assay: Western blot of His-tagged BST2 fragment
T16 construct: Expressed in E. coli BL21(DE3); denatured and reduced for Western blotting; also called lane 8: E(135)-----Q(180); not shown: N-terminal His tag supplied by vector pET32
T16 chain: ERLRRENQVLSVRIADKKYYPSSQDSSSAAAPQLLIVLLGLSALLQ
Method: as §1

- binding result (human BST2D): binds
- binding result [1]: binds
- binding result [2]: binds
- binding result [3]: binds
- binding result [4]: binds
- binding result [5]: binds
- binding result [6]: binds
- binding result [7]: binds
- binding result [8]: binds
- binding result (human BST2H): no binding
- Kd [9]: 0.1 nM
- binding result [10]: no binding (tested: 1 µg/ml)
- binding result [11]: no binding (tested: 1 µg/ml)
- binding result [12]: no binding (tested: 1 µg/ml)
- binding result [13]: no binding (tested: 1 µg/ml)
- binding result [14]: no binding (tested: 1 µg/ml)
- binding result [15]: no binding (tested: 1 µg/ml)
B1: mouse anti-human BST2 monoclonal antibody #4LD (antibody, V domains shown)
VH: DVQLQESGPGLVKPSQSLSLTCSVTGYSITSGYYWNWIRQFPGNKLEWMGYISYDGSNNYNPSLKNRISITRDTSKNQFFLKLNSVTTEDTATYYCAILGRGYWGQGTTLTVSS
VL: DIVLTQSPASLAVSLGQRATISCRASQSVSTSSYSYMHWYQQKPGQPPKLLIKYASNLESGVPARFSGSGSGTDFTLNIHPVEEEDTATYYCQHSWEIPYTFGGGTKLEIK
notes: Purified from hybridoma #4LD (FERM BP-10964); also called mouse antibody #4LD; anti-human BST2(D+/H-) antibody
